Assay results taken from patent US20030199022.
Numbering of substitutions follows the chain as printed.

Assays:
Test in all cases: cell_activity
[1] = biological target: T1, ER4.3 (in cell) E203W,Q214V,G215R,H216P,N217T (Homo sapiens) (UniProt P03372); settings: HepG2, 10 nM OHT
T1 sequence: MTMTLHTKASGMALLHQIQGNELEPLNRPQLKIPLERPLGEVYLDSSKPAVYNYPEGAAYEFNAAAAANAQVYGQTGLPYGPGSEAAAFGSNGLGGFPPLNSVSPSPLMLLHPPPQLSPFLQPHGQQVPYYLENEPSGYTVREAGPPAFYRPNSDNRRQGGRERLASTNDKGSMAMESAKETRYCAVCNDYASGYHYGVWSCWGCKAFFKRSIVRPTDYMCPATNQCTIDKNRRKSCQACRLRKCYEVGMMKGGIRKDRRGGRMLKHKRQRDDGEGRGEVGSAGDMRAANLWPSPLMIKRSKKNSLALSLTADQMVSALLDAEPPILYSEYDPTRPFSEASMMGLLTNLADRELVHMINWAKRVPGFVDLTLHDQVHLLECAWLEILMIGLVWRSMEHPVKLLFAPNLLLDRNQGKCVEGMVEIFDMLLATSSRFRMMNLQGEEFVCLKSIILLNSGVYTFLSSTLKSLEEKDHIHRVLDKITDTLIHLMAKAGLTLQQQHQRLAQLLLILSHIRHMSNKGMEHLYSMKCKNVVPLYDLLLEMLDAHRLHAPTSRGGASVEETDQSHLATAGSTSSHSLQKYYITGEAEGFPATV

[2] = biological target: T2, ER3M (in cell) E203W,Q214A,H216G (Homo sapiens) (UniProt P03372); settings: HepG2, 10 nM OHT
T2 sequence: T1 sequence with V214A, R215G, P216G, T217N

[3] = biological target: T3, ERα wild type (in cell) (Homo sapiens) (UniProt P03372); settings: HepG2, OHT
T3 sequence: T1 sequence with W203E, V214Q, R215G, P216H, T217N

In the case of “GCTAGCGGGCCACTGTGGCCCTGACAACTAGTAAGTCGGGCCACTGTGGCCCGACGTACTATCTCGAGGGGCCACTGTGGCCCTAGAGCTGCAGGTATCGGGCCACTGTGGCCCTAGTTCATTAAAGCTTGGGCCACTGTGGCCCATCAAGATATCGAGATGGGCCACTGTGGCCCATCGACAGGAATTCACGGGCCACTGTGGCCCATCAAGATATCGAGATGGGCCACTGTGGCCCATCGACTCTAGA (double strand) [ATL8/PAL]”, the activity (fold induction) [1] is reported as 172, the activity (fold induction) [2] is reported as 117 and the activity (fold induction) [3] is reported as 52.
